The text below walks through data of publication PMC10847457 (Cell Discovery, 2024).

The test has as its target MERS-CoV S trimer (stabilized soluble S2P) (MERS-CoV, strain not named; stand-in …, UniProt K9N5Q8, stabilised). As to the kind of experiment: ELISA. The settings on record: both partners purified. (An ELISA detects its analyte on a solid surface through an enzyme-linked reagent.)

B1: PW5-535 (antibody, V domains shown)
VH: EVRLVESGGGLVQPGGSLRLSCAASGFTFRNYDIHWVRQTTGKGLEWVSAVGTSGDTYYLDSVKGRFTISREDAKKSVYLQMNSLRAGDTAMYYCVRGDASPDNIYYYMDVWGTGTRVIVSS
VL: DIQVTQSPSPLSASVGDRVTITCRASQTIGKYLNWYHQIPGKAPKLLISAASTLHSGVPSRFSGRGSGTDFTLTISSLQPEDFGTYYCQQSYSSPPWTFGQGTKVEIK
B1: the binding result was “binds”.

B2: PW5-5 (antibody, V domains shown)
VH: QVQLVQSGAEVKKPGASVKVSCKTSGYTFTDHYMYWVRQAPGQGLEWMGVINPDAGSVTYAQKFQGRVTMTSDTSTSTVYMELSSLRSEDTAVYYCARDLFFIPAANSFDYWGQGTLVTVSS
VL: EIVLTQSPATLSLSPGERATLSCRASQSVSSYLAWYQQKPGQAPRLLIYDATNRATGIPARFSGSGSGTDFTLTISSLEPEDFAVYYCQHRSNWPRMFTFGQGTKLEIK
notes: also called PW5-5 IgG; IgG PW5-5
In the case of B2, the binding result is “binds”.
